Several values for one entry are separate records, joined by “and”; a condition that tells them apart may be missing. Equal values may be shown once.
What was measured:
[1] = target: hemagglutinin (HA) of influenza A/Solomon Islands/3/06 H1N1 (Influenza A virus A/Solomon Islands/3/2006 (H1N1)); assay: ELISA, inactivated whole virions coated; transfection supernatant set 2
[2] = target: hemagglutinin (HA) of influenza A/Wisconsin/67/05 H3N2 (Influenza A virus A/Wisconsin/67/2005 (H3N2)); assay: as above
[3] = target: hemagglutinin (HA) of influenza A/Solomon Islands/3/06 H1N1 (Influenza A virus A/Solomon Islands/3/2006 (H1N1)); assay: ELISA, inactivated whole virions coated; transfection supernatant set 3
[4] = target: hemagglutinin (HA) of influenza A/Wisconsin/67/05 H3N2 (Influenza A virus A/Wisconsin/67/2005 (H3N2)); assay: as above
[5] = target: hemagglutinin (HA) of influenza A/Japan/305/57 H2N2 (Influenza A virus A/Japan/305/1957 (H2N2)) (UniProt P03451); assay: as above
[6] = target: recombinant homotrimeric HA, A/Solomon Islands/3/06 H1N1 (Influenza A virus A/Solomon Islands/3/06 (H1N1)); assay: trimeric HA microarray, transfection set 5
[7] = target: recombinant homotrimeric HA, A/South Carolina/1/18 H1N1 (Influenza A virus A/South Carolina/1/18 (H1N1)); assay: trimeric HA microarray, transfection set 5
[8] = target: recombinant homotrimeric HA, A/Vietnam/1203/04 H5N1 (Influenza A virus A/Vietnam/1203/04 (H5N1)); assay: trimeric HA microarray, transfection set 5
[9] = target: hemagglutinin (HA) of influenza A/Solomon Islands/3/06 H1N1 (Influenza A virus A/Solomon Islands/3/2006 (H1N1)); assay: ELISA, inactivated whole virions coated; transfection supernatant set 1
[10] = target: hemagglutinin (HA) of influenza A/Wisconsin/67/05 H3N2 (Influenza A virus A/Wisconsin/67/2005 (H3N2)); assay: as above
[11] = target: hemagglutinin (HA) of influenza A/Solomon Islands/3/06 H1N1 (Influenza A virus A/Solomon Islands/3/2006 (H1N1)); assay: ELISA, inactivated whole virions coated; transfection supernatant set 5
[12] = target: hemagglutinin (HA) of influenza A/Wisconsin/67/05 H3N2 (Influenza A virus A/Wisconsin/67/2005 (H3N2)); assay: as above
[13] = target: recombinant homotrimeric HA, A/Solomon Islands/3/06 H1N1 (Influenza A virus A/Solomon Islands/3/06 (H1N1)); assay: trimeric HA microarray, transfection set 2
[14] = target: recombinant homotrimeric HA, A/chicken/Vietnam/NCVD-016/08 H5N1 (Influenza A virus A/chicken/Vietnam/NCVD-016/08 (H5N1)); assay: trimeric HA microarray, transfection set 2
[15] = target: recombinant homotrimeric HA, A/California/4/09 H1N1 (Influenza A virus A/California/4/09 (H1N1)); assay: trimeric HA microarray, transfection set 2
[16] = target: recombinant homotrimeric HA, A/Anhui/1/05 H5N1 (Influenza A virus A/Anhui/1/05 (H5N1)); assay: trimeric HA microarray, transfection set 2
[17] = target: recombinant homotrimeric HA, A/Egypt/3300-NAMRU3/08 H5N1 (Influenza A virus A/Egypt/3300-NAMRU3/08 (H5N1)); assay: trimeric HA microarray, transfection set 2
[18] = target: recombinant homotrimeric HA, A/Hong Kong/1073/99 H9N2 (Influenza A virus A/Hong Kong/1073/99 (H9N2)); assay: trimeric HA microarray, transfection set 2
[19] = target: recombinant homotrimeric HA, A/Netherlands/219/03 H7N7 (Influenza A virus A/Netherlands/219/03 (H7N7)); assay: trimeric HA microarray, transfection set 2
[20] = target: recombinant homotrimeric HA, A/northern shoveler/California/HKWF115/07 (Influenza A virus A/northern shoveler/California/HKWF115/2007 (H6N1)); assay: trimeric HA microarray, transfection set 2
[21] = target: recombinant homotrimeric HA, A/Wisconsin/67/05 H3N2 (Influenza A virus A/Wisconsin/67/05 (H3N2)); assay: trimeric HA microarray, transfection set 2
[22] = target: recombinant homotrimeric HA, A/common magpie/Hong Kong/5052/07 H5N1 (Influenza A virus A/common magpie/Hong Kong/5052/07 (H5N1)); assay: trimeric HA microarray, transfection set 2
[23] = target: recombinant homotrimeric HA, A/Indonesia/5/05 H5N1 (Influenza A virus A/Indonesia/5/05 (H5N1)); assay: trimeric HA microarray, transfection set 2
[24] = target: recombinant homotrimeric HA, A/South Carolina/1/18 H1N1 (Influenza A virus A/South Carolina/1/18 (H1N1)); assay: trimeric HA microarray, transfection set 2
[25] = target: recombinant homotrimeric HA, A/Vietnam/1203/04 H5N1 (Influenza A virus A/Vietnam/1203/04 (H5N1)); assay: trimeric HA microarray, transfection set 2
[26] = target: recombinant homotrimeric HA, A/duck/Yangzhou/02/05 H8N4 (Influenza A virus A/duck/Yangzhou/02/2005 (H8N4)); assay: trimeric HA microarray, transfection set 2
[27] = target: recombinant homotrimeric HA, A/swine/Ontario/01911-2/99 H4N6 (Influenza A virus A/swine/Ontario/01911-2/99 (H4N6)); assay: trimeric HA microarray, transfection set 2
[28] = target: recombinant homotrimeric HA, A/Hong Kong/2108/03 H9N2 (Influenza A virus A/Hong Kong/2108/03 (H9N2)); assay: trimeric HA microarray, transfection set 2
[29] = target: recombinant homotrimeric HA, A/Japan/305/57 H2N2 (Influenza A virus A/Japan/305/57 (H2N2)); assay: trimeric HA microarray, transfection set 2
[30] = target: hemagglutinin (HA) on live influenza A virus A/Solomon Islands/3/06 H1N1 (Influenza A virus A/Solomon Islands/3/2006 (H1N1)); assay: cell-based or functional assay
[31] = target: hemagglutinin (HA) on live influenza A virus A/Wisconsin/67/05 H3N2 (Influenza A virus A/Wisconsin/67/2005 (H3N2)); assay: cell-based or functional assay
[32] = target: hemagglutinin (HA) on live influenza A virus A/California/4/09 H1N1 (Influenza A virus A/California/04/2009 (H1N1)); assay: cell-based or functional assay

## TCN-202 (2N9) (antibody)
[1]
  OD450: 0.08 OD450
[2]
  OD450: 0.07 OD450
[3]
  OD450: 0.1 OD450
[4]
  OD450: 0.08 OD450
[5]
  OD450: 0.08 OD450
[6]
  Trimeric HA Binding RLU: 525 RLU
[7]
  Trimeric HA Binding RLU: 5330 RLU
[8]
  Trimeric HA Binding RLU: 30000 RLU
[9]
  OD450: 0.07 OD450
[10]
  OD450: 0.07 OD450
[11]
  OD450: 0.07 OD450
[12]
  OD450: 0.07 OD450
[13]
  Trimeric HA Binding RLU: 16 RLU
[14]
  Trimeric HA Binding RLU: 22 RLU
[15]
  Trimeric HA Binding RLU: 52 RLU
[16]
  Trimeric HA Binding RLU: 9 RLU
[17]
  Trimeric HA Binding RLU: 18 RLU
[18]
  Trimeric HA Binding RLU: 33 RLU
[19]
  Trimeric HA Binding RLU: 26 RLU
[20]
  Trimeric HA Binding RLU: 30 RLU
[21]
  Trimeric HA Binding RLU: 46 RLU
[22]
  Trimeric HA Binding RLU: 11 RLU
[23]
  Trimeric HA Binding RLU: 8 RLU
[24]
  Trimeric HA Binding RLU: 195 RLU
[25]
  Trimeric HA Binding RLU: 121 RLU
[26]
  Trimeric HA Binding RLU: 19 RLU
[27]
  Trimeric HA Binding RLU: 15 RLU
[28]
  Trimeric HA Binding RLU: 7 RLU
[29]
  Trimeric HA Binding RLU: 32 RLU
[30]
  % Neutralization: 0% and 7%
[31]
  % Neutralization: 17.8% and 0%
[32]
  % Neutralization: 0%

Reference: patent US20120207760A1
